One molecule from patent publication CN1618813A (SHANGHAI HUMAN GENOME RES CT, dated 2005) can be followed below.

This assay addresses T1, 甲状腺素受体相互作用蛋白15 (thyroid receptor interacting protein 15, TRIP15) (human, UniProt P61201 1-443).
T1 construct: Purified prokaryotic expression product of the TRIP15 gene; also called TRIP15蛋白; 人TRIP15蛋白
The assay can be described thus: indirect ELISA, phage antibody on purified TRIP15 antigen. For orientation: ELISA stands for enzyme-linked immunosorbent assay.

T1 sequence (P61201 whole entry): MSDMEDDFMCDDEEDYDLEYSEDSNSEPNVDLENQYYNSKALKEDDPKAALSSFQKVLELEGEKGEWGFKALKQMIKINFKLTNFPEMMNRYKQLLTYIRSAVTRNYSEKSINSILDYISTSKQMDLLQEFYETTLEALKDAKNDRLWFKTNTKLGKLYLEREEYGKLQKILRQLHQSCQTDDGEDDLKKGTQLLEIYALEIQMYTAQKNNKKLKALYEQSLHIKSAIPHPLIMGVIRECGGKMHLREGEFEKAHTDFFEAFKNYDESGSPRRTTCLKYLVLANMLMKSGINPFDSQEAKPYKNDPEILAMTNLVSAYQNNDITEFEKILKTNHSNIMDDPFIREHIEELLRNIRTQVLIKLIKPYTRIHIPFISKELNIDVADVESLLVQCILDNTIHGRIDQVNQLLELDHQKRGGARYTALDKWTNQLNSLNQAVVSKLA

B1: 抗TRIP15噬菌体抗体 (anti-TRIP15 phage-displayed human single-chain antibody, positive clone) (scFv, V domains shown)
VH: EVQLLESGGGLVQPGGSLRLSCAASGFTFSSYAMSWVRQAPGKGLEWVSSISNDGLKTLYADSVKGRFTISRDNSKNTLYLQMNSLRAEDTAVYYCAKNTGSFDYWGQGTLVTV
VL: DIQMTQSPSSLSASVGDRVTITCRASQSISSYLNWYQQKPGKAPKLLIYRASNLQSGVPSRFSGSGSGTDFTLTISSLQPEDFATYYCQQVLRRPATFGQGTKVEIKR
notes: also called 阳性克隆的噬菌体抗体; 针对TRIP15抗原的scFv
Turning to B1, the binding result is given as “binds”.
